Data published in US20160166613A1.

Columns and labels:
[1] = target: CD19-CAR-FRBl2 (CD19 chimeric antigen receptor with two tandem FRBl domains, coexpressed with iCaspase9 from iC9-CAR(19).FRBl2)
[2] = target: Her2-CAR-FRBl2 (Her2 chimeric antigen receptor with two tandem FRBl domains fused to the carboxy terminus); experiment: cell-based or functional assay
[3] = target: CD19-CAR-FRBl2 (CD19 chimeric antigen receptor with two tandem FRBl domains, coexpressed with iCaspase9 from iC9-CAR(19).FRBl2); experiment: cell-based or functional assay

Sequence of CD19-CAR-FRBl2 (CD19 chimeric antigen receptor with two tandem FRBl domains, coexpressed with iCaspase9 from iC9-CAR(19).FRBl2) (chain, as listed by the source mutant limits assumed): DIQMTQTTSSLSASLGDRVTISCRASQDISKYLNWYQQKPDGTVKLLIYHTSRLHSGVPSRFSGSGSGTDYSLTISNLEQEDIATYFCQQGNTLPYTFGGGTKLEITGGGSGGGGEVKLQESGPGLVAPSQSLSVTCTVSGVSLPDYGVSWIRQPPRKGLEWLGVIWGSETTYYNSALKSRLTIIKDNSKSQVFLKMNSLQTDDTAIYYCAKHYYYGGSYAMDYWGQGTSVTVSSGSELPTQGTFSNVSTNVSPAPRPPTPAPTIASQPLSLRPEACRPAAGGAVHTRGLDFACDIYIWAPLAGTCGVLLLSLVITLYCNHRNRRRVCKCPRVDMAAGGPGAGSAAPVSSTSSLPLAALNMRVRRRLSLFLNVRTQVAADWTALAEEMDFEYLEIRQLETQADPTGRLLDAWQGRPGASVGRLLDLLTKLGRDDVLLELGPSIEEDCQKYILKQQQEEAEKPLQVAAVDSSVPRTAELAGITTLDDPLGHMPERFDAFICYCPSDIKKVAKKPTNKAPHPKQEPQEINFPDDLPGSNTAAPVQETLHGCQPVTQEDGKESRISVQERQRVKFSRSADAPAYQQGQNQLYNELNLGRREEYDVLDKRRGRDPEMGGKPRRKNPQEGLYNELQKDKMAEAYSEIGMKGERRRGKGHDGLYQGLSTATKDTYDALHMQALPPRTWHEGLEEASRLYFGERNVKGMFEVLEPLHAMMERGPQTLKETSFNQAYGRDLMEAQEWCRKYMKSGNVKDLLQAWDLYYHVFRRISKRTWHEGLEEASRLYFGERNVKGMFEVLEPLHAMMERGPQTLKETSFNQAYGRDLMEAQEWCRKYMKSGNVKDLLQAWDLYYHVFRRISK
Sequence of Her2-CAR-FRBl2 (Her2 chimeric antigen receptor with two tandem FRBl domains fused to the carboxy terminus) (chain, as listed by the source mutant limits assumed): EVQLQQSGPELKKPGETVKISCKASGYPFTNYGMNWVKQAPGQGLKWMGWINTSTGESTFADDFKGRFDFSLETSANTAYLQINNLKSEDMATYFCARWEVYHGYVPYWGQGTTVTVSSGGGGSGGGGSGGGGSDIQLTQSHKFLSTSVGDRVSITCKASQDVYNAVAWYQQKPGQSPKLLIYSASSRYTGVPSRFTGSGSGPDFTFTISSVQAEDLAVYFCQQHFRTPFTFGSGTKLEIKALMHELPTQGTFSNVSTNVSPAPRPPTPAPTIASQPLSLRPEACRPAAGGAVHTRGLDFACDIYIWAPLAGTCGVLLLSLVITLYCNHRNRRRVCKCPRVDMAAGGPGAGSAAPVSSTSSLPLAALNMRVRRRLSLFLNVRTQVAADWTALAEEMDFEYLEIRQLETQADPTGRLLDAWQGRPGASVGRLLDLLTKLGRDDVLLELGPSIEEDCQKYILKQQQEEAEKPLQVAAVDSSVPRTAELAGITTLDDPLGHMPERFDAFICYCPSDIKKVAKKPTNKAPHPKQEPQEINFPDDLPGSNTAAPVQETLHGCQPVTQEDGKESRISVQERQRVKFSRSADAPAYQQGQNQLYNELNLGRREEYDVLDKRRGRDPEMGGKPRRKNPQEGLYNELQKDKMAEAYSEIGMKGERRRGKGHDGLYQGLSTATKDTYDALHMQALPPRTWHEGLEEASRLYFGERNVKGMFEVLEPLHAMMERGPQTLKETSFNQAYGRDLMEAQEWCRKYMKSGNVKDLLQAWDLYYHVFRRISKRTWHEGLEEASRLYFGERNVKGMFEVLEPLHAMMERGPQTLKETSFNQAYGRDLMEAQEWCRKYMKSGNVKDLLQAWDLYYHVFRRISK

inducible Caspase-9 (FKBP12v36 - SGGGSG linker - dCaspase9) (enzyme)
IC50 (read off the curve): concentration of the dimerizer rapamycin (not of a protein) at half-maximal loss of SEAP activity, 293 cells expressing iC9.CAR(19)-FRBl2 [1]: 1 nM
SEAP activity (constitutive SRα-SEAP reporter in transfected 293 cells, overnight with half-log dilutions of rapamycin) (% decrease of SEAP activity) [2]: 50
SEAP activity (constitutive SRα-SEAP reporter in transfected 293 cells, overnight with half-log dilutions of rapamycin) (% decrease of SEAP activity) [3]: 50
